According to the supplement of paper PMC9170038:

Tested on: MS2 coat protein
Test: apparent KD of MS2 coat protein; designed switch direction (-1 OFF switch, 1 ON switch): -1; higher = weaker reporter binding
Outline: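 Designed RNA switches were transcribed on Illumina chips by stalled E. coli RNA polymerase and titrated with SNAP-549-labelled MS2 coat protein from 0.7 or 1.5 nM, doubling to 3 µM. Step length ran from 0.8–1.5 h at the lowest concentration to 10–20 min at the highest. The apparent KD is the median over clusters for each design, from curve-fitted normalised cluster fluorescence.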

[1] = Eterna round: R95, input ligand: microRNA oligo, concentration not stated
[2] = Eterna round: R95, input ligand: FMN 200 uM
[3] = Eterna round: R95, input ligand: none
[4] = input ligand: microRNA oligo, concentration not stated

CAGCUGAAUGUGAGGAUAUGUCUAGCUGCGGCUAGACAGAAGGCACAUGAGGAUCACCCAUGUCUCAACAGCUG [BmEx4/2-D3] (Eterna round: R97, puzzle: Brourd's mod of Exclusion 4)
apparent KD of MS2 coat protein (input ligand: FMN 200 uM): 414 nM
apparent KD of MS2 coat protein (input ligand: none): 35.5 nM

UACACUGCAUGAGGAUCAAACAUGAGGAUCACCCAUGUAUAGCAGGCUUUUUGUACGUCUUAUAAUUAUGUAGUGUA [Electric Eye 16 - Jieux - Sensor, turn-off variant 1] (Eterna round: R97, puzzle: Sensor, turn-off variant 1)
apparent KD of MS2 coat protein (input ligand: FMN 200 uM): 15.9 nM

UUUCGGUCAGGAUAUCCCGUACUACUAGCCGCGACUUACGAGGAGAAGGGACAUGAGGAUCACCCAUGUGCGCU [Colors] (Eterna round: R97, puzzle: Exclusion 4)
apparent KD of MS2 coat protein (input ligand: FMN 200 uM): 16.2 nM
apparent KD of MS2 coat protein (input ligand: none): 14.7 nM

AAAUAACGAGGAUAUAGGGUCCGGAACAUGAGGAUCACCCAUGUAUUGGAAACAACGUGGUUAGAAGGCGUUGCCC [EX5 A.15] (Eterna round: R97, puzzle: Exclusion 5)
apparent KD of MS2 coat protein (input ligand: FMN 200 uM): 25.6 nM
apparent KD of MS2 coat protein (input ligand: none): 28.7 nM

AAUUCGAGAGGAUAUACAGGUGAUAUGUAGAAGCCUCGAGCACAUGAGGAUCACCCAUGUAGAAGGCUCAUAUA [EX2 A.11] (Eterna round: R97, puzzle: Exclusion 2)
apparent KD of MS2 coat protein (input ligand: FMN 200 uM): 262 nM
apparent KD of MS2 coat protein (input ligand: none): 29.6 nM

UCAUACGGUGAGGAUAUCUCCGUUAAAGUAUGUAGAGAAGGCGCUACAUGAGGAUCACCCAUGUUUGUGGGCAG [Ex-6 Malc#10] (puzzle: Exclusion 6)
apparent KD of MS2 coat protein [1]: 323 nM

GUGAAGAAGUUAGUGGCCUACAUGAGGAUCACCCAUGUGAGGGAAAUGUCGAGGCGGAGGUUGUGUGCUCGUCUGUA [JR_SV3TOV1_Sub041] (puzzle: Sensor v3, turn-off variant 1)
apparent KD of MS2 coat protein [2]: 25.7 nM
apparent KD of MS2 coat protein [1]: 27.6 nM
apparent KD of MS2 coat protein [3]: 26.4 nM

AUUAAUCAGCAGGAUAUAAGUAUCUGAAGGUGGUUAGAAGGGCUGACAUGAGGAUCACCCAUGUGCUCUUCGUG [Vevetigeat] (puzzle: Exclusion 6)
apparent KD of MS2 coat protein [1]: 12.4 nM

ACUAGGCGAGGAUAUACAUGCUUAACGCAGGAAAAGCUGCGACAUGAGGAUCACCCAUGUAGAAGGCGCAAAUA [Xege] (puzzle: Exclusion 2)
apparent KD of MS2 coat protein [1]: 15.4 nM

UGUCUGUCAGGAUAUUCGAGUUCGAGUGAAAGCUUGAGCUUGAAGAAGGGACAUGAGGAUCACCCAUGUGGACG [-28.5, -27.4 kcal, A 27%, 1bis-(ca)1] (Eterna round: R97, puzzle: Exclusion 4)
apparent KD of MS2 coat protein (input ligand: FMN 200 uM): 87.8 nM
apparent KD of MS2 coat protein (input ligand: none): 50.1 nM

AGGUGUAGGUAAGGAUAUAUCUAAAACCACAUGAGGAUCACCCAUGUAGCGGGUAUCUUCGUGAGAUAGAAGGUGCACGCCGAA [Atbiasori] (Eterna round: R96, puzzle: Exclusion NG 2)
apparent KD of MS2 coat protein (input ligand: FMN 200 uM): 494 nM
apparent KD of MS2 coat protein [4]: 269 nM
apparent KD of MS2 coat protein (input ligand: none): 308 nM

UAUAUAUAGUAAGGAUAUGUAAUUAUCUUAUAAACAGAAGGUACUGACAUGAGGAUCACCCAUGUUUUAGUGUGGGCAUGUAGA [JMF's solution 39] (Eterna round: R96, puzzle: Exclusion NG 1)
apparent KD of MS2 coat protein [4]: 49.8 nM

CCUUAGGGAGGAUAUACAUGAGGAUCACCCAUGUACCGCGGCGCGUUCACACGGGUGGGUAGAAGGCCCUCACU [Colors] (Eterna round: R97, puzzle: Exclusion 3)
apparent KD of MS2 coat protein (input ligand: FMN 200 uM): 463 nM
apparent KD of MS2 coat protein (input ligand: none): 540 nM

AGUAACUAUCACGAAAGUGAUAGUUACACAAGUGAAUAAACAUGAGGAUCACCCAUGUCCUCAUUUGCUCGUUUUAU [Sensor 3 - 17] (puzzle: Sensor v3, turn-off variant 2)
apparent KD of MS2 coat protein [2]: 486 nM
apparent KD of MS2 coat protein [1]: 553 nM
apparent KD of MS2 coat protein [3]: 400 nM

UUUUUGGUAGGAUAUACAUGAGGAUCACCCAUGUCCCACCCGUUACCUAUGACCAUAUGUAGAAGGACCAUUUC [Exy#11] (Eterna round: R97, puzzle: Exclusion 3)
apparent KD of MS2 coat protein (input ligand: FMN 200 uM): 24.6 nM
apparent KD of MS2 coat protein (input ligand: none): 21.3 nM

AUAUAGUCAGGAUAUCGAAAUAUAUAUUAAUAUAUAUAAUACGAGAAGGGACAUGAGGAUCACCCAUGUAGUAA [JR_Exclusion4)Sub001] (puzzle: Exclusion 4)
apparent KD of MS2 coat protein [1]: 23.7 nM

GUAAUUAAUGUAGGAUAUGCAAGGCGAACCUAAGCAGAAGGACAUGAGGAUCACCCAUGUAUUGCGGUCUGCGUACAGAUCGCU [salish99_ExNG1_r4_008] (Eterna round: R96, puzzle: Exclusion NG 1)
apparent KD of MS2 coat protein (input ligand: FMN 200 uM): 45.7 nM
apparent KD of MS2 coat protein [4]: 18.5 nM
apparent KD of MS2 coat protein (input ligand: none): 19.9 nM
